Assays:
[1] = target: T1, CD20-Hoc fusion protein (human; T4 phage, UniProt P11836 142-187; P18056 1-376, limits assumed); test: SPR
T1 construct: also called Hoc-CD20; Hoc-CD

[2] = target: T2, Hoc (T4 phage, UniProt P18056 1-376, limits assumed); test: SPR
T2 construct: Purified Hoc used as control for the fusion partner; also called outer capsid protein Hoc of T4 phage

[3] = target: T1, CD20-Hoc fusion protein; test: SPR binding kinetics
[4] = target: T1, CD20-Hoc fusion protein; test: SPR; KD on Hoc divided by KD on Hoc-CD20

T2 sequence (P18056 whole entry, the tested form may be a part): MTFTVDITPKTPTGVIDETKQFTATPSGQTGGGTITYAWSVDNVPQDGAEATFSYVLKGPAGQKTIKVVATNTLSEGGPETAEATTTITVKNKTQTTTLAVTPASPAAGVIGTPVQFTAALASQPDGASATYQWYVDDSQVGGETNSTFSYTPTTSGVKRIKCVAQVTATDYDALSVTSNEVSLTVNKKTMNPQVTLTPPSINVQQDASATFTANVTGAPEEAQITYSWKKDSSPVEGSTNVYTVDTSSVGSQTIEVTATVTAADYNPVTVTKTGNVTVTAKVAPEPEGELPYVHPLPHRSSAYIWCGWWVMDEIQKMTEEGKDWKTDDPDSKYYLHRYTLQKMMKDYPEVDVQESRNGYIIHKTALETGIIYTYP
T1 sequence (P11836 142-187, tags or fused parts left off): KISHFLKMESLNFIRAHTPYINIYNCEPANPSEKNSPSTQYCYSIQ

B1: M24E (VHH)
VHH: DVQLQASGGGLVQAGGSLRLSCAASGSTFSIKHHGWYRRAPGNQREWVAGISSENITNVAEAVKGRFTISRDNAKNTVYLQMNSLKVEDTAVYYCYAQDNDYRFLHRFWGQGTQVTVSL
notes: also called bt-M24E; anti-CD20 sdAb M24E
In the case of B1, the Kd [1] is reported as 5.7 nM, the koff [1] is reported as 0.0043 s⁻¹ and the kon [1] is reported as 750000 M⁻¹ s⁻¹. The Kd [2] was 230 nM, the koff [2] was 0.046 s⁻¹ and the kon [2] was 200000 M⁻¹ s⁻¹. The “differential binding to CD20-Hoc fusion against Hoc” value (shortened to “differential binding”) [3] was roughly 1000 fold and the “Ratio Hoc KD/Hoc-CD20 KD” value [4] was 40 ratio.

B2: M28C (VHH)
VHH: DVQLQASGGGLVQAGGSLRLSCAASGSTFSIKHHGWYRRAPGNQREWVAGINSENITNVAGAVKGRFTISRDNAKNTVYLQMNSLKVEDTAVYFCYAQDNDYRFLHRFWGQGTQVTVSL
notes: also called bt-M28C; anti-CD20 sdAb M28C
Work on B2 yielded a Kd [1] of 15 nM, a koff [1] of 0.0045 s⁻¹ and a kon [1] of 300000 M⁻¹ s⁻¹. It also gave a Kd [2] of 5300 nM, a koff [2] of 0.36 s⁻¹ and a kon [2] of 68000 M⁻¹ s⁻¹. The “differential binding” value [3] was roughly 1000 fold and the “Ratio Hoc KD/Hoc-CD20 KD” value [4] was 353 ratio.

B3: M112D (VHH)
VHH: DVQLQASGGGLVQAEGSLRLSCAASGSTFGIKHHGWYRRAPGNQREWVAGISSENITNVAEAVKGRFTISRDNAKNTVYLQMNSLKVEDTAVYYCYAQDNNYRFLHRFWGQGTQVTVSL
notes: also called bt-M112D; anti-CD20 sdAb M112D
For B3, the Kd [1] was 26 nM, the koff [1] was 0.007 s⁻¹ and the kon [1] was 280000 M⁻¹ s⁻¹. The Kd [2] was 2100 nM, the koff [2] was 0.32 s⁻¹ and the kon [2] was 150000 M⁻¹ s⁻¹. The “differential binding” value [3] was roughly 100 fold and the “Ratio Hoc KD/Hoc-CD20 KD” value [4] was 81 ratio.

— patent US20180079822A1 (UNITED STATES OF AMERICA AS REPRESENTED BY THE SECRETARY OF …, published 2018)
